The text below walks through data of patent US20040235157A1.

In this test the target is Type I interferon receptor (endogenous, on human promonocytic PIL5 cells derived from U937) (human) (UniProt P17181). Put plainly: cell-based or functional assay.
UniProt P17181, sequence (P17181 28-557, chain 1 of 2): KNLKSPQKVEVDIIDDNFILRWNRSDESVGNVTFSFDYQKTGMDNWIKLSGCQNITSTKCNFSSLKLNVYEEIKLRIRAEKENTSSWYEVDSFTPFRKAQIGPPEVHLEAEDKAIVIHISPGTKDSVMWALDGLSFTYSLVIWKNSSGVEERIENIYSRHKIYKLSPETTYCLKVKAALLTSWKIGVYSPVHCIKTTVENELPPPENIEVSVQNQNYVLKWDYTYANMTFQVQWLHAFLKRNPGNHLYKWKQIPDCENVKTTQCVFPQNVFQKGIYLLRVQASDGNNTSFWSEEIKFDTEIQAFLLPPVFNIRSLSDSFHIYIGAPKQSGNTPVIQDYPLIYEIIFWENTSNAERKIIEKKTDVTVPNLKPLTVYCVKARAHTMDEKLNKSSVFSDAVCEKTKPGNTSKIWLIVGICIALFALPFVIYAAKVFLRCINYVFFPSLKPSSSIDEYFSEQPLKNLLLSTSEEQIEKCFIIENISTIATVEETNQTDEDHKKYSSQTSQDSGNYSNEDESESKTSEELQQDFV
UniProt P17181, sequence (P48551 27-515, chain 2 of 2, further chain): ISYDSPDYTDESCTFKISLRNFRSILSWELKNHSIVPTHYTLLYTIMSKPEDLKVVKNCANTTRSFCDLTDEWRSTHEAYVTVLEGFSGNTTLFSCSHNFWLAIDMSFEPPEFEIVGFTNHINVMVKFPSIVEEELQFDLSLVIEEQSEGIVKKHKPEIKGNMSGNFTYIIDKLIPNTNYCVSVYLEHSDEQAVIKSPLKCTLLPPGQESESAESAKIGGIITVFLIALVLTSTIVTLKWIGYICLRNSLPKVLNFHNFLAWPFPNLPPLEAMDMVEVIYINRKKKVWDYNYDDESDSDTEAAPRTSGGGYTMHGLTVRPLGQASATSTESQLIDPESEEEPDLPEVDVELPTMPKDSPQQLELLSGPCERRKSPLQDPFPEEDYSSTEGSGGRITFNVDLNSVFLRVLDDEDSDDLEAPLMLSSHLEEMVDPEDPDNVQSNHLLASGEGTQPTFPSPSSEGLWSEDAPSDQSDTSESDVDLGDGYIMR

In the case of “human IFN α (standard preparation of human interferon alpha) (ligand)”, the luciferase gene reporter assay using PIL5 cells (lowest detectable IFN activity) is less than 1 IU/ml.
With “IFNβ (from UniProt P01574 22-187) (ligand)” the figure was less than 1 IU/ml.
